Assays:
Assay in all cases: EMSA
[1] = test system: Prp3/4 (Prp3-Prp4 complex);Snu13;Prp31;Sm protein complex (SmB, D1, D2, D3, E, F, G) (Saccharomyces cerevisiae;Saccharomyces cerevisiae;Saccharomyces cerevisiae;Saccharomyces cerevisiae); details: Prp3/4 titrated; Snu13, Prp31, Sm prebound; apparent; Hill 1; EMSA: 2 nM RNA, 10 mM K-HEPES pH 7.5, 100 mM KCl, 0.01% NP-40, 20 ug E. coli tRNA in 100 ul, on ice 60 min, 4% native gel 0.5X TBE 4 C; smFRET: 10 mM Tris-HCl …
[2] = test system: LSm2-LSm8 complex;Snu13;Prp31 (Saccharomyces cerevisiae;Saccharomyces cerevisiae;Saccharomyces cerevisiae); details: LSm titrated; Snu13, Prp31 prebound; apparent; Hill 1; EMSA: 2 nM RNA, 10 mM K-HEPES pH 7.5, 100 mM KCl, 0.01% NP-40, 20 ug E. coli tRNA in 100 ul, on ice 60 min, 4% native gel 0.5X TBE 4 C; smFRET: 10 mM Tris-HCl …
[3] = test system: Prp3/4 (Prp3-Prp4 complex);Snu13;Prp31;Sm protein complex (SmB, D1, D2, D3, E, F, G);LSm2-LSm8 complex (Saccharomyces cerevisiae;Saccharomyces cerevisiae;Saccharomyces cerevisiae;Saccharomyces cerevisiae;Saccharomyces cerevisiae); details: EMSA: 2 nM RNA, 10 mM K-HEPES pH 7.5, 100 mM KCl, 0.01% NP-40, 20 ug E. coli tRNA in 100 ul, on ice 60 min, 4% native gel 0.5X TBE 4 C; smFRET: 10 mM Tris-HCl …
[4] = test system: Prp31;Snu13 (Saccharomyces cerevisiae;Saccharomyces cerevisiae); details: Prp31 titrated; Snu13 prebound; apparent; Hill 2.9; EMSA: 2 nM RNA, 10 mM K-HEPES pH 7.5, 100 mM KCl, 0.01% NP-40, 20 ug E. coli tRNA in 100 ul, on ice 60 min, 4% native gel 0.5X TBE 4 C; smFRET: 10 mM Tris-HCl …
[5] = test system: Sm protein complex (SmB, D1, D2, D3, E, F, G);Snu13 (Saccharomyces cerevisiae;Saccharomyces cerevisiae); details: Sm titrated; Snu13 prebound; apparent; Hill 2.2; EMSA: 2 nM RNA, 10 mM K-HEPES pH 7.5, 100 mM KCl, 0.01% NP-40, 20 ug E. coli tRNA in 100 ul, on ice 60 min, 4% native gel 0.5X TBE 4 C; smFRET: 10 mM Tris-HCl …
[6] = test system: LSm2-LSm8 complex;Snu13;Prp31;Sm protein complex (SmB, D1, D2, D3, E, F, G) (Saccharomyces cerevisiae;Saccharomyces cerevisiae;Saccharomyces cerevisiae;Saccharomyces cerevisiae); details: LSm titrated; Snu13, Prp31, Sm prebound; apparent; Hill 1; text prints 152; EMSA: 2 nM RNA, 10 mM K-HEPES pH 7.5, 100 mM KCl, 0.01% NP-40, 20 ug E. coli tRNA in 100 ul, on ice 60 min, 4% native gel 0.5X TBE 4 C; smFRET: 10 mM Tris-HCl …
[7] = test system: Sm protein complex (SmB, D1, D2, D3, E, F, G);Snu13;Prp31 (Saccharomyces cerevisiae;Saccharomyces cerevisiae;Saccharomyces cerevisiae); details: Sm titrated; Snu13, Prp31 prebound; apparent; Hill 2.3; EMSA: 2 nM RNA, 10 mM K-HEPES pH 7.5, 100 mM KCl, 0.01% NP-40, 20 ug E. coli tRNA in 100 ul, on ice 60 min, 4% native gel 0.5X TBE 4 C; smFRET: 10 mM Tris-HCl …
[8] = test system: Prp3/4 (Prp3-Prp4 complex);Snu13 (Saccharomyces cerevisiae;Saccharomyces cerevisiae); details: Prp3/4 titrated; Snu13 prebound; apparent; Hill 3.4; EMSA: 2 nM RNA, 10 mM K-HEPES pH 7.5, 100 mM KCl, 0.01% NP-40, 20 ug E. coli tRNA in 100 ul, on ice 60 min, 4% native gel 0.5X TBE 4 C; smFRET: 10 mM Tris-HCl …
[9] = test system: LSm2-LSm8 complex;Snu13 (Saccharomyces cerevisiae;Saccharomyces cerevisiae); details: LSm titrated; Snu13 prebound; apparent; Hill 3.3; EMSA: 2 nM RNA, 10 mM K-HEPES pH 7.5, 100 mM KCl, 0.01% NP-40, 20 ug E. coli tRNA in 100 ul, on ice 60 min, 4% native gel 0.5X TBE 4 C; smFRET: 10 mM Tris-HCl …
[10] = test system: Prp3/4 (Prp3-Prp4 complex);Snu13;Prp31 (Saccharomyces cerevisiae;Saccharomyces cerevisiae;Saccharomyces cerevisiae); details: Prp3/4 titrated; Snu13, Prp31 prebound; apparent; Hill 1.5; EMSA: 2 nM RNA, 10 mM K-HEPES pH 7.5, 100 mM KCl, 0.01% NP-40, 20 ug E. coli tRNA in 100 ul, on ice 60 min, 4% native gel 0.5X TBE 4 C; smFRET: 10 mM Tris-HCl …

U4/U6 snRNA duplex (full length)
Kd [1]: 557 nM
Kd [2]: 98 nM
Kd [3]: 20 nM
Kd [4]: 50 nM
Kd [5]: 92 nM
Kd [6]: 154 nM
Kd [7]: 108 nM
Kd [8]: 88 nM
Kd [9]: 26 nM
Kd [10]: 417 nM

Reference: PMC4678811, “Assembly and dynamics of the U4/U6 di-snRNP by single-molecule FRET” (Nucleic Acids Research, 2015)
